Measured values as given in patent US8404644B2, “Agents with angiogenic and wound healing activity” (Meat & Livestock Australia Limited, priority 2007, dated 2013).

Experiments:
[1] = system: rat aortic ring; test: Rat aortic ring angiogenesis assay (Example 4.3); type: cell-based, Lewis rat; conditions: for % of Control: microvessel growth
Description: Four separate studies were carried out to determine the angiogenic effect of crystallin preparations. Each sample was assayed in triplicate. A positive control (VEGF) and a vehicle control containing PBS was also run in triplicate. […] Preliminary statistical significance was assessed with an independent Student t-test at α<0.05. Graphical representation of averages +/− standard errors were determined.
The first study investigated the angiogenic potential of bovine fractions prepared by gel filtration analysis as described in Example 3.2. As described in that Example, the alpha fraction contained αA and αB crystallin, the β H fraction contained all β crystallins, the β L1 fractions contained a sub-fraction of beta crystallins and a high content of βB2 crystallin and beta B3 crystallin and the beta L2 fraction contained only βB2 crystallin and βA3 crystallin.
The second study investigated the angiogenic potential of purified crystallin proteins. Briefly, βB3 crystallin was prepared by heating (97-99° C. for 3 minutes, supernatant collected by centrifugation) and was essentially homogenous. Alpha A crystallin and αB crystallin samples were prepared by ion exchange chromatography as described above and were also essentially homogenous. The Wound Heal 1-3 preparations were also tested in this study.
The third study investigated the angiogenic potential of ovine crystallin proteins compared to their bovine equivalents. Both bovine and ovine crystallin proteins were purified essentially to homogeneity by RP. HPLC using a C4 column, as described below in Example 5. Homogeneity was confirmed by SDS-PAGE. The effect of elastase I treatment of βB2 crystallin was also investigated by comparing the angiogenic potential of intact βB2 crystallin (i.e. undigested) with elastase I digested βB2 crystallin. Elastase I treatment releases the N-terminal and C-terminal extensions of the crystallin protein leaving a globular protein that is monomeric.
In the final study, ovine βB2 crystallin was tested alone or in combination with indoleamine 2,3-dioxygenase (IDO) and ovine alpha B crystallin was tested alone or in combination with tryptophan dioxygenase (TDO)
Briefly, in each study, a single Lewis rat was euthanised and its aorta transferred to a 15 mL Falcon tube containing 10 mL of MCBD-131 medium and stored on ice. After transferring the aorta to a 92×17 mm petri dish containing 10 mL of ice cold MCDB-131, the outer fatty tissue was removed under an Olympus SZ-60 Dissecting microscope. This was undertaken with fibre optic lamp illumination. The aorta was then cut into sequential rings approximately 2 mm in size. Connective tissue was removed with micro scissors and forceps from the outside of the individual rings. Clean rings were stored in a separate petri dish in sterile MCDB-131 medium. Rings were pre-incubated overnight at 37° C. in an atmosphere of 97% air/3% CO2.
To prepare gel sandwiches, 75 mg of fibrinogen was added to 25 mL MCDB-131 medium and shaken gently on a rocker roller for 5 minutes. 3 ml of MCDB-131/fibrinogen solution was added to a 15 mL Falcon tube, followed by 10 μL of thrombin and quickly mixed. A 0.4 mL volume of this fibrinogen-thrombin solution was added to each well on a 24 well plate, 6 wells at a time. Aortic rings were then placed on the setting gel, pushed gently into the gel and left for 45 minutes. These steps were then repeated so each ring was covered with 0.4 mL of gel. Gels were left to set at room temperature. […] The plate was then placed in incubator (37° C., 97% air/3% CO2).
Culture plate were examined daily for signs of infection (fungal growth or yellowing of media) in the wells using an inverted microscope. The growth of microvessels from their perimeters was also observed. Digital photographs of each well were taken seven days after plating using a Pixera PVC-100C digital camera mounted on an OLYMPUS CK-12 microscope and stored on a Macintosh Computer. […]

[2] = target: T1, elastase I (Sus scrofa, UniProt P00772); test: Chaperone activity: protection of elastase I from heat denaturation; type: biochemical; conditions: boiling water bath for 30 seconds
T1 construct: purchased Worthington Biochemical Corporation 2280
T1 sequence (P00772 27-266): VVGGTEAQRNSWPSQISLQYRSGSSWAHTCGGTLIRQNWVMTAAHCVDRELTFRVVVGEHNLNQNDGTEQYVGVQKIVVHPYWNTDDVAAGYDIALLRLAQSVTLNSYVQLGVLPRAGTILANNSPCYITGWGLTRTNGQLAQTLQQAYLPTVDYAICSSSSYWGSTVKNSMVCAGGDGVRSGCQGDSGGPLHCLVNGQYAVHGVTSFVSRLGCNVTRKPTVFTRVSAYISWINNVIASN
Description: Bovine crystallin fractions were tested for ability to protect the proteases elastase I, trypsin and chymotrypsin from heat denaturation. Briefly, the proteases were heated in a boiling water bath for 30 seconds in the presence or absence of the crystallin fractions.

[3] = Body weight during wound healing assay (Example 3.6); type: in vivo, male Lewis rats; conditions: PBS control returned by day 11
Description: (§1) Body weights were measured on days 1, 3, 5, 7, 9, 11, 13, 15, 17, 19, 21 and 23 and deviations from original body weights (on day 1) calculated for each animal. On the same days, photographs were taken using a Canon Digital Eos 20D with a F2.8 Macro lens. Photographs were downloaded and wound areas measured using NIH Image J 1.633u software (National Institutes of Health (NIH), Rockville Pike, Bethesda, Md., United States). A laser speckle image was also taken at the same time as each space photograph was taken. Animals were weighed every second day when the photographic record of wound closure rate was also made.

[4] = system: full thickness 12 mm wound; test: Wound healing assay (Example 3.6); type: in vivo, male Lewis rats; conditions: for Wound areas: mg/wound: Wound heal 1 0.01, Wound heal 2 0.1, Wound heal 3 1.0, Aloe vera 20
Description: Thirty male Lewis rats were divided into 5 groups of 6 rats as outlined below in Table 7. Rats were age and weight matched. Rats were permitted rodent diet and water ad libitum throughout the study.
The animals were weighed two days before the start of the trial and weights grouped from lightest to heaviest. Animals were then randomly assigned to groups based on body weights, using 5×5 Latin squares so that group means were as similar as possible.
Approximately 30 minutes before wounding, each animal was given a subcutaneous injection of Temgesic at the base of the neck (0.075 mg/kg body weight). Each animal was anaesthetised using 3% halothane in oxygen. Once the pedal reflexes had been abolished, the animals were shaved from the base of the skull to the hind limb area using electric clippers. The skin on each rat was disinfected using 0.5% chlorhexidine in 70% ethanol. For each animal, the distance from the base of the skull to the top of the hip joint was measured and the wound position marked with a black felt tip pen, 6 cm below the base of the skull along the spinal axis.
Using asceptic techniques a full thickness incision was made at this position using a sterile 12 mm biopsy punch. Any bleeding was removed using cotton swabs. Care was taken that the punch was dry and that no debris (eg., skin, hair) entered the wounds. […] After photography of each wound using a Canon Digital EOS 20D camera with a F2.8 Macro lens, an aliquot of the sample was applied to the wounds on the rats in Groups A, B, D and E using a Gilson Microman CP 100 positive displacement pipette. The biopsy punch was wiped inside with a swab soaked in sterile saline to remove any tissue fluids and/or debris. The punch was then immersed in 70% ethanol before use on the next animal.
For applications and photographs after day 1 the animals were restrained without being anaesthetised.
as §1
The redness and swelling of each wound were individually scored from visual observation. These were scored on a scale of 0-3 as follows:
Descriptive statistics were evaluated. […] Major analyses were performed on all data points collected. Preliminary analyses were undertaken on control wounds only using t-tests. Univariate ANOVAs were used to assess differences between treatment and controls and samples nested within treatments. A separate ANOVA assessed whether there was a dose response using the treatment samples only. Assumptions for normality were tested using q-q plots on studentized residuals and heterogeneity of variances were tested using Levene's tests. SPSS 11 for Mac OSX was used for assumption testing and statistical analysis.

[5] = summary of second and third study

B1: Ovine βB2 crystallin: intact ovine βB2 crystallin prepared by RP HPLC on C4 column (protein)
chain: ASDHQTQAGKPQPLNPKIIIFEQENFQGHSHELNGPCPNLKETGVEKAGSVLVQAGPWVGYEQANCKGEQFVFEKGEYPRWDSWTSSRRTDSLSSLRPIKVDSQEHKITLYENPNFTGKKMEVIDDDVPSFHAHGYQEKVSSVRVQSGTWVGYQYPGYRGLQYLLEKGDYKDSGDFGAPQPQVQSVRRIRDMQWHQRGAFHPS
- angiogenic activity (in words) [1, 5]: not angiogenic
- % of Control ([1]; third study, 100 μg/mL): 103.5%

B2: Tryptophan dioxygenase TDO: tryptophan hydrolyzing enzyme (protein, UniProt P48775 1-406, looked up)
Tryptophan 2,3-dioxygenase: MSGCPFLGNNFGYTFKKLPVEGSEEDKSQTGVNRASKGGLIYGNYLHLEKVLNAQELQSETKGNKIHDEHLFIITHQAYELWFKQILWELDSVREIFQNGHVRDERNMLKVVSRMHRVSVILKLLVQQFSILETMTALDFNDFREYLSPASGFQSLQFRLLENKIGVLQNMRVPYNRRHYRDNFKGEENELLLKSEQEKTLLELVEAWLERTPGLEPHGFNFWGKLEKNITRGLEEEFIRIQAKEESEEKEEQVAEFQKQKEVLLSLFDEKRHEHLLSKGERRLSYRALQGALMIYFYREEPRFQVPFQLLTSLMDIDSLMTKWRYNHVCMVHRMLGSKAGTGGSSGYHYLRSTVSDRYKVFVDLFNLSTYLIPRHWIPKMNPTIHKFLYTAEYCDSSYFSSDESD
- angiogenic activity (in words) ([1]; forth study, 100 μg/mL): stimulatory
- % of Control ([1]; forth study, 100 μg/mL): 106.2%

B3: Bovine αB crystallin: bovine αB crystallin prepared by ion exchange chromatography, essentially homogenous (protein)
chain: MDIAIHHPWIRRPFFPFHSPSRLFDQFFGEHLLESDLFPASTSLSPFYLRPPSFLRAPSWIDTGLSEMRLEKDRFSVNLDVKHFSPEELKVKVLGDVIEVHGKHEERQDEHGFISREFHRKYRIPADVDPLAITSSLSSDGVLTVNGPRKQASGPERTIPITREEKPAVTAAPKK
- % of Control ([1]; second study, 200 μg/mL): 85.21%
- chaperone activity: protection of elastase I from heat denaturation (in words) [2]: able to protect elastase I from heat inactivation

B4: Wound Heal 1: bovine βB2 crystallin, fractionated at pH 5.3 on Sephacryl 300 HR; Group B of Example 3, 0.01 mg/wound (protein)
chain: ASDHQTQAGKPQPLNPKIIIFEQENFQGHSHELNGPCPNLKETGVEKAGSVLVQAGPWVGYEQANCKGEQFVFEKGEYPRWDSWTSSRRTDSLSSLRPIKVDSQEHKITLYENPNFTGKKMEVIDDDVPSFHAHGYQEKVSSVRVQSGTWVGYQYPGYRGLQYLLEKGDYKDSGDFGAPQPQVQSVRRIRDMQWHQRGAFHPSS
- day by which mean body weight had returned to the starting (pre-wounding) weight [3]: ≤ 14 days
- % of Control ([1]; second study, 200 μg/mL): 94.52%
- Wound areas ([4]; Day 1 (=100)): 100
- Wound areas ([4]; Day 3): 86
- Wound areas ([4]; Day 5): 75
- Wound areas ([4]; Day 7): 69
- Wound areas ([4]; Day 9): 54
- Wound areas ([4]; Day 11): 32
- Wound areas ([4]; Day 13): 18
- Wound areas ([4]; Day 15): 13
- Wound areas ([4]; Day 17): 8
- Wound areas ([4]; Day 19): 4
- Wound areas ([4]; Day 21): 1.7
- Wound areas ([4]; Day 23): 1.4
- mean wound area ([4]; day 5): 123 ± 14.7 mm²
- wound area at day 5, statistical significance ([4]; day 5, p=0.045 (Wound Heal 1), p=0.008 (Wound Heal 2)): significantly smaller
- healing rate compared to Control group (PBS), in words ([4]; rat, in vivo): slightly faster healing rate than the reference group over the first 7 days
- chaperone activity: protection of elastase I from heat denaturation (in words) [2]: not

B5: Bovine βB2 crystallin (non-elastase treated): intact bovine βB2 crystallin prepared by RP HPLC on C4 column (protein, UniProt P02522 2-205, looked up)
Beta-crystallin B2: ASDHQTQAGKPQPLNPKIIIFEQENFQGHSHELNGPCPNLKETGVEKAGSVLVQAGPWVGYEQANCKGEQFVFEKGEYPRWDSWTSSRRTDSLSSLRPIKVDSQEHKITLYENPNFTGKKMEVIDDDVPSFHAHGYQEKVSSVRVQSGTWVGYQYPGYRGLQYLLEKGDYKDSGDFGAPQPQVQSVRRIRDMQWHQRGAFHPSS
- angiogenic activity (in words) [1, 5]: not angiogenic
- % of Control ([1]; third study, 100 μg/mL): 93.4%
